Assays:
Assay in all cases: cell-based or functional assay
[1] = biological target: HIV-1 92RW008 Env (HIV-1)
[2] = biological target: HIV-1 92RW009 Env (HIV-1)
[3] = biological target: HIV-1 92RW020 Env (HIV-1)
[4] = biological target: HIV-1 92RW021 Env (HIV-1)
[5] = biological target: HIV-1 92RW024 Env (HIV-1)
[6] = biological target: HIV-1 92RW026 Env (HIV-1)
[7] = biological target: HIV-1 92UG031 Env (HIV-1)
[8] = biological target: HIV-1 92UG037 Env (HIV-1)
[9] = biological target: HIV-1 93RW029 Env (HIV-1)
[10] = biological target: HIV-1 93UG077 Env (HIV-1)
[11] = biological target: HIV-1 94KE105 Env (HIV-1)
[12] = biological target: HIV-1 94UG103 Env (HIV-1)
[13] = biological target: HIV-1 MGRM-A-001 Env (HIV-1)
[14] = biological target: HIV-1 MGRM-A-002 Env (HIV-1)
[15] = biological target: HIV-1 MGRM-A-003 Env (HIV-1)
[16] = biological target: HIV-1 MGRM-A-004 Env (HIV-1)
[17] = biological target: HIV-1 MGRM-A-005 Env (HIV-1)
[18] = biological target: HIV-1 MGRM-A-006 Env (HIV-1)
[19] = biological target: HIV-1 MGRM-A-007 Env (HIV-1)
[20] = biological target: HIV-1 MGRM-A-008 Env (HIV-1)
[21] = biological target: HIV-1 MGRM-A-009 Env (HIV-1)
[22] = biological target: HIV-1 MGRM-A-010 Env (HIV-1)
[23] = biological target: HIV-1 MGRM-A-011 Env (HIV-1)
[24] = biological target: HIV-1 MGRM-A-012 Env (HIV-1)
[25] = biological target: HIV-1 MGRM-A-013 Env (HIV-1)
[26] = biological target: HIV-1 MGRM-A-014 Env (HIV-1)
[27] = biological target: HIV-1 VLGCA1 Env (HIV-1)
[28] = biological target: HIV-1 92BR020 Env (HIV-1)
[29] = biological target: HIV-1 93TH305 Env on pseudovirus (HIV-1)
[30] = biological target: HIV-1 APV_13 Env on pseudovirus (HIV-1)
[31] = biological target: HIV-1 JRCSF Env (HIV-1) (UniProt P20871)
[32] = biological target: HIV-1 JRCSF Env on pseudovirus (HIV-1) (UniProt P20871)
[33] = biological target: HIV-1 LAVIC_18 Env on pseudovirus (HIV-1)
[34] = biological target: HIV-1 MGRM-AE-008 Env (HIV-1)
[35] = biological target: HIV-1 MGRM-AG-002 Env (HIV-1)
[36] = biological target: HIV-1 MGRM-AG-005 Env (HIV-1)
[37] = biological target: HIV-1 MGRM-C-022 Env on pseudovirus (HIV-1)
[38] = biological target: HIV-1 MGRM-C-023 Env on pseudovirus (HIV-1)
[39] = biological target: HIV-1 MGRM-Chronic-B-002 Env on pseudovirus (HIV-1)
[40] = biological target: HIV-1 MGRM-Chronic-B-003 Env on pseudovirus (HIV-1)
[41] = biological target: HIV-1 MGRM-Chronic-B-004 Env on pseudovirus (HIV-1)
[42] = biological target: HIV-1 MGRM-Chronic-B-017 Env on pseudovirus (HIV-1)
[43] = biological target: HIV-1 MGRM-Chronic-B-020 Env on pseudovirus (HIV-1)
[44] = biological target: HIV-1 MGRM-Chronic-B-024 Env on pseudovirus (HIV-1)
[45] = biological target: HIV-1 MGRM-D-005 Env (HIV-1)
[46] = biological target: HIV-1 MGRM-D-028 Env (HIV-1)
[47] = biological target: HIV-1 MGRM-F1-015 Env (HIV-1)
[48] = biological target: HIV-1 MGRM-F1-020 Env (HIV-1)
[49] = biological target: HIV-1 MGRM-G-004 Env (HIV-1)
[50] = biological target: HIV-1 MGRM-G-017 Env (HIV-1)
[51] = biological target: HIV-1 MGRM-G-024 Env (HIV-1)
[52] = biological target: HIV-1 PVO.4 (Acute) Env on pseudovirus (HIV-1)
[53] = biological target: HIV-1 SF162 Env on pseudovirus (HIV-1) (UniProt P19550)

Sequence of 1443_C16 (PG16) (TCN-116) (antibody) (VH): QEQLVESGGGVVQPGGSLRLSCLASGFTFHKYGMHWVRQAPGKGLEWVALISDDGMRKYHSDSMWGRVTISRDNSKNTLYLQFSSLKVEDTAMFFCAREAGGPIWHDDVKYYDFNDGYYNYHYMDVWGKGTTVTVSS
Sequence of 1443_C16 (PG16) (TCN-116) (antibody) (VL): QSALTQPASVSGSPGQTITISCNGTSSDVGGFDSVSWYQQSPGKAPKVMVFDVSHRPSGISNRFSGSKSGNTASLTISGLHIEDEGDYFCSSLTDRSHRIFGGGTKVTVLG

## 1495_C14 (PGC14) (antibody)
[1]
  neutralization IC50: 37 µg/mL
[2]
  neutralization IC50: > 50 µg/mL
[3]
  neutralization IC50: 46 µg/mL
[4]
  neutralization IC50: > 50 µg/mL
[5]
  neutralization IC50: > 50 µg/mL
[6]
  neutralization IC50: > 50 µg/mL
[7]
  neutralization IC50: > 50 µg/mL
[8]
  neutralization IC50: > 50 µg/mL
[9]
  neutralization IC50: 42 µg/mL
[10]
  neutralization IC50: > 50 µg/mL
[11]
  neutralization IC50: > 50 µg/mL
[12]
  neutralization IC50: > 50 µg/mL
[13]
  neutralization IC50: > 50 µg/mL
[14]
  neutralization IC50: > 50 µg/mL
[15]
  neutralization IC50: > 50 µg/mL
[16]
  neutralization IC50: > 50 µg/mL
[17]
  neutralization IC50: > 50 µg/mL
[18]
  neutralization IC50: > 50 µg/mL
[19]
  neutralization IC50: > 50 µg/mL
[20]
  neutralization IC50: > 50 µg/mL
[21]
  neutralization IC50: > 50 µg/mL
[22]
  neutralization IC50: > 50 µg/mL
[23]
  neutralization IC50: > 50 µg/mL
[24]
  neutralization IC50: > 50 µg/mL
[25]
  neutralization IC50: > 50 µg/mL
[26]
  neutralization IC50: > 50 µg/mL
[27]
  neutralization IC50: > 50 µg/mL
[28]
  neutralization IC50: 0.637 µg/mL
[29]
  IC50: 6 µg/mL
[30]
  IC50: > 50 µg/mL
[31]
  neutralization IC50: > 50 µg/mL
[32]
  IC50: 15 µg/mL
[33]
  IC50: > 50 µg/mL
[34]
  IC50 (µg/ml), pseudovirus neutralization: > 50 µg/mL
[35]
  IC50 (µg/ml), pseudovirus neutralization: > 50 µg/mL
[36]
  IC50 (µg/ml), pseudovirus neutralization: > 50 µg/mL
[37]
  IC50: > 50 µg/mL
[38]
  IC50: > 50 µg/mL
[39]
  IC50: > 50 µg/mL
[40]
  IC50: > 50 µg/mL
[41]
  IC50: > 50 µg/mL
[42]
  IC50: > 50 µg/mL
[43]
  IC50: > 50 µg/mL
[44]
  IC50: > 50 µg/mL
[45]
  IC50 (µg/ml), pseudovirus neutralization: > 50 µg/mL
[46]
  IC50 (µg/ml), pseudovirus neutralization: > 50 µg/mL
[47]
  IC50 (pseudovirus neutralization): > 50 µg/mL
[48]
  IC50 (pseudovirus neutralization): > 50 µg/mL
[49]
  IC50 (µg/ml), pseudovirus neutralization: > 50 µg/mL
[50]
  IC50 (µg/ml), pseudovirus neutralization: > 50 µg/mL
[51]
  IC50 (µg/ml), pseudovirus neutralization: > 50 µg/mL
[52]
  IC50: > 50 µg/mL
[53]
  IC50: < 0.0025 µg/mL

## 1443_C16 (PG16) (TCN-116) (antibody)
[1]
  neutralization IC50: 0.002 µg/mL
[2]
  neutralization IC50: 0.11 µg/mL
[3]
  neutralization IC50: 0.28 µg/mL
[4]
  neutralization IC50: 0.11 µg/mL
[5]
  neutralization IC50: 0.08 µg/mL
[6]
  neutralization IC50: 0.03 µg/mL
[7]
  neutralization IC50: 0.43 µg/mL
[8]
  neutralization IC50: 0.01 µg/mL
[9]
  neutralization IC50: 3.83 µg/mL
[10]
  neutralization IC50: > 50 µg/mL
[11]
  neutralization IC50: 6.13 µg/mL
[12]
  neutralization IC50: 0.04 µg/mL
[13]
  neutralization IC50: > 50 µg/mL
[14]
  neutralization IC50: 0.004 µg/mL
[15]
  neutralization IC50: 2.65 µg/mL
[16]
  neutralization IC50: 0.04 µg/mL
[17]
  neutralization IC50: 0.09 µg/mL
[18]
  neutralization IC50: > 50 µg/mL
[19]
  neutralization IC50: 5.91 µg/mL
[20]
  neutralization IC50: > 50 µg/mL
[21]
  neutralization IC50: 0.01 µg/mL
[22]
  neutralization IC50: 0.004 µg/mL
[23]
  neutralization IC50: 0.24 µg/mL
[24]
  neutralization IC50: 20.7 µg/mL
[25]
  neutralization IC50: 0.09 µg/mL
[26]
  neutralization IC50: 20.3 µg/mL
[27]
  neutralization IC50: 0.18 µg/mL
[28]
  neutralization IC50: > 50 µg/mL
  neutralization IC90: > 50 µg/mL
[29]
  IC50: 19.3 µg/mL
[30]
  IC50: > 50 µg/mL
[31]
  neutralization IC50: < 0.0025 µg/mL
  neutralization IC90: 0.013 µg/mL
[32]
  IC50: 0.001 µg/mL
[33]
  IC50: 0.02 µg/mL
[34]
  IC50 (µg/ml), pseudovirus neutralization: 3.25 µg/mL
[35]
  IC50 (µg/ml), pseudovirus neutralization: 0.03 µg/mL
[36]
  IC50 (µg/ml), pseudovirus neutralization: > 50 µg/mL
[37]
  IC50: 0.25 µg/mL
[38]
  IC50: 0.09 µg/mL
[39]
  IC50: 3.06 µg/mL
[40]
  IC50: 0.19 µg/mL
[41]
  IC50: 0.01 µg/mL
[42]
  IC50: 0.02 µg/mL
[43]
  IC50: > 50 µg/mL
[44]
  IC50: 0.01 µg/mL
[45]
  IC50 (µg/ml), pseudovirus neutralization: 19.7 µg/mL
[46]
  IC50 (µg/ml), pseudovirus neutralization: > 50 µg/mL
[47]
  IC50 (pseudovirus neutralization): > 50 µg/mL
[48]
  IC50 (pseudovirus neutralization): 4.35 µg/mL
[49]
  IC50 (µg/ml), pseudovirus neutralization: > 50 µg/mL
[50]
  IC50 (µg/ml), pseudovirus neutralization: 0.02 µg/mL
[51]
  IC50 (µg/ml), pseudovirus neutralization: 0.01 µg/mL
[52]
  IC50: 5.43 µg/mL
[53]
  IC50: > 50 µg/mL
